Columns and labels:
calmodulin [1] = target: T1, calmodulin (Homo sapiens, UniProt P0DP23); assay: Change in conformational entropy of calmodulin on binding a target domain, estimated from methyl O^2axis (harmonic oscillator model); conditions: 308 K; for TSconf: absolute conformational entropy of calmodulin in complex; for −TΔSconf: calmodulin upon binding target domain, free CaM reference state; for TSrotamer(fast) / TSrotamer(slow): classical entropy; for TSrotamer(fast): fast rotamer interconversion; for TSrotamer(slow): slowly interconverting conformers; for TSharm: motion within a rotameric well, simple harmonic oscillator
From the text: Guided by Karplus and co-workers (see Karplus M et al. (1987)), the present approach connects the change in internal protein dynamics to the conformational entropy, describing the protein as a disjoint multidimensional harmonic well: Sconf=ΣpiS^hi−kBΣpilnpi (2) where S^hi represents the entropy manifested by fast intra-well motion and the second term corresponds to the classical conformational entropy arising from the i=1 . . . N distinct conformations. Here S^hi is obtained from interpretation of local order parameters, which is model-dependent. The present approach finds its modern roots in the work described in Akke, M., Bruschweiler, R. & Palmer, A. G. NMR order parameters and free-energy—an analytical approach and its application to cooperative Ca^2+ binding by calbindin-D(9k). J. Am. Chem. Soc. 115, 9832-9833 (1993), in which a specific motional model (potential energy function) is used to provide a parametric relationship between what is measured, the squared generalized order parameter, and what is sought, a thermodynamic quantity such as the entropy.
A simple harmonic oscillator treatment was selected to make this connection. Li, Z., Raychaudhuri, S. & Wand, A. J. Insights into the local residual entropy of proteins provided by NMR relaxation. Prot. Sci. 5, 2647-2650 (1996). It is important to note that the absolute entropies obtained in this way are very dependent on the details of the potential energy function but that differences in entropy calculated from changes in O^2 are fairly insensitive to the model used. Li, Z, et al. (1996); Lee, A. L. et al. Temperature dependence of the internal dynamics of a calmodulin peptide complex. Biochemistry 41, 13814-13825 (2002). As the reference state for obtaining ΔSconf we use calcium-saturated calmodulin. The second term of equation (2) represents classical entropy arising from the local heterogeneity of side-chain conformers. This can be manifested on a range of timescales. […] This was interpreted as classical entropy with the population of each state (pi) estimated from the intensity of cross peaks. […] Lee, A. L. et al. (2002). This also represents conformational entropy and was estimated using a previously described model. Id.
The change in conformational entropy of calmodulin on binding a target domain was estimated as the sum of three terms: ΔSconf=ΔSharm+ΔSrotamer(fast)+ΔSrotamer(slow). Sharm was obtained from O^2axis parameters using a harmonic oscillator model. Li, Z., Raychaudhuri, S. & Wand, A. J. Insights into the local residual entropy of proteins provided by NMR relaxation. Prot. Sci. 5, 2647-2650 (1996). Free calcium-saturated calmodulin was used as the reference state in site-to-site comparisons. To normalize the unequal number of resolved sites among the complexes, the average methyl order parameter within a complex was assigned to each unresolved site of that complex. A classical entropy term ΔSrotamer(fast) was added to represent minor conformers that are sampled owing to fast rotameric interconversion. Lee, A. L. et al. Temperature dependence of the internal dynamics of a calmodulin peptide complex. Biochemistry 41, 13814-13825 (2002). For the small number of sites having multiple conformations in slow exchange on the NMR chemical shift timescale, an additional classical entropy contribution ΔSrotamer(slow) was calculated on the basis of measured intensities. Populations of the three motional classes were obtained using nonlinear regression of a three gaussian model to the observed order parameter distributions. […]

calmodulin [2] = target: T1, calmodulin; assay: Populations of J, α, ω motional classes of calmodulin methyl O^2axis distributions in the complexes
Method: FIG. 3a, provides a histogram of the sum of the O^2axis parameter distributions of calmodulin in the six individual complexes obtained at 35° C. The solid line represents the best-fitted solution to a 3-gaussian distribution with all nine parameters fitted. FIG. 3b provides histograms of the O^2axis parameter distributions of calmodulin in the individual complexes. […]
The summed distribution of O^2axis axis parameters of all six complexes was fitted to a random distribution and to one, two- and three-gaussian distribution models. […] (3) where Ai, Ci and Wi define the population, centre and breadth, respectively, of the J, α and ω classes of motion.
The nine parameters were fitted using the nonlinear regression routine of SigmaPlot 2000 (SPSS). […] These centres were fixed in subsequent fitting of the O^2axis distributions of the individual complexes, from which the relative populations of each motional class were obtained. Uncertainties in the fitted populations were estimated by varying the O^2axis parameters by two standard deviations. […] The total change in conformational entropy of calmodulin on binding a target domain was calculated as the sum of three terms: ΔSconf=ΔSharm+ΔSrotamer(fast)+ΔSrotamer(slow). Changes in conformational entropy ΔSrotamer(fast) expressed as changes in motion within a rotameric well on the fast timescale (sub-ns) were obtained from the experimentally determined O^2axis parameters using a simple harmonic oscillator model. Li Z et al. (1996). To calculate changes in entropy derived from motion of the same oscillator, site-to-site comparison to free calcium-saturated calmodulin was used to provide a reference state. The change in the entropy reflected by the change in the motion of each methyl symmetry axis was estimated using ΔSharm=−18×ΔO^2axis J mol^−1 K^−1. See Li Z et al. (1996) for further details of the model. To normalize the unequal number of resolved sites among the complexes, the average methyl order parameter within a complex was assigned to each unresolved site of that complex. A classical entropy term (ΔSrotamer(fast)) was added to represent minor conformers that are sampled owing to fast rotameric interconversion that also contributes to the generalized order parameter. Lee, A. L. et al. Temperature dependence of the internal dynamics of a calmodulin peptide complex. Biochemistry 41, 13814-13825 (2002).

[3] = area under fitted Gaussian, fixed centres
[4] = percentage of counts in class (number of observations), O^2axis 0.5 to 0.7
[5] = percentage of counts in class (number of observations), O^2axis above 0.7
[6] = percentage of counts in class (number of observations), O^2axis up to 0.5

QTEKMWQRLKGILRSLVKQ [PDE(p)]
TSconf (calmodulin [1]): 177.9 kcal/mol
−TΔSconf (calmodulin [1]): +24.9 kJ/mol
TSrotamer(fast) (calmodulin [1]): 25.96 kcal/mol
TSrotamer(slow) (calmodulin [1]): 3.56 kcal/mol
TSharm (calmodulin [1]): 148.3 kcal/mol
% J (calmodulin [2]; [3]): 48.3%
% α (calmodulin [2]; [3]): 18.9%
% ω (calmodulin [2]; [3]): 32.8%
% α (calmodulin [2]; [4]): 33%
% ω (calmodulin [2]; [5]): 20%
% J (calmodulin [2]; [6]): 46%

AKSKWKQAFNATAVVRHMRKLQ (listed as Homo sapiens) [CaMKI(p)]
TSconf (calmodulin [1]): 168 kcal/mol
−TΔSconf (calmodulin [1]): +66.0 kJ/mol
TSrotamer(fast) (calmodulin [1]): 22.6 kcal/mol
TSrotamer(slow) (calmodulin [1]): 3.59 kcal/mol
TSharm (calmodulin [1]): 141.8 kcal/mol
% J (calmodulin [2]; [3]): 38.2%
% α (calmodulin [2]; [3]): 24.8%
% ω (calmodulin [2]; [3]): 37.0%
% α (calmodulin [2]; [4]): 30%
% ω (calmodulin [2]; [5]): 32%
% J (calmodulin [2]; [6]): 38%

(COOH-FPNGFSRKRLMSKVLIVTTWSPLL [CaMKKα(p)]
TSconf (calmodulin [1]): 168.6 kcal/mol
−TΔSconf (calmodulin [1]): +63.5 kJ/mol
TSrotamer(fast) (calmodulin [1]): 23.5 kcal/mol
TSrotamer(slow) (calmodulin [1]): 2.25 kcal/mol
TSharm (calmodulin [1]): 142.9 kcal/mol
% J (calmodulin [2]; [3]): 38.5%
% α (calmodulin [2]; [3]): 21.3%
% ω (calmodulin [2]; [3]): 40.3%
% α (calmodulin [2]; [4]): 30%
% ω (calmodulin [2]; [5]): 35%
% J (calmodulin [2]; [6]): 35%

KRRAIGFKKLAEAVKFSAKLMGQ [nNOS(p)]
TSconf (calmodulin [1]): 180 kcal/mol
−TΔSconf (calmodulin [1]): +15.9 kJ/mol
TSrotamer(fast) (calmodulin [1]): 26.31 kcal/mol
TSrotamer(slow) (calmodulin [1]): 5.93 kcal/mol
TSharm (calmodulin [1]): 147.8 kcal/mol
% J (calmodulin [2]; [3]): 51.6%
% α (calmodulin [2]; [3]): 14.7%
% ω (calmodulin [2]; [3]): 33.7%
% α (calmodulin [2]; [4]): 25%
% ω (calmodulin [2]; [5]): 30%
% J (calmodulin [2]; [6]): 45%

RKKTFKEVANAVKISASLMG [eNOS(p)]
TSconf (calmodulin [1]): 172.8 kcal/mol
−TΔSconf (calmodulin [1]): +46.1 kJ/mol
TSrotamer(fast) (calmodulin [1]): 24.21 kcal/mol
TSrotamer(slow) (calmodulin [1]): 3.97 kcal/mol
TSharm (calmodulin [1]): 144.6 kcal/mol
% J (calmodulin [2]; [3]): 45.6%
% α (calmodulin [2]; [3]): 18.4%
% ω (calmodulin [2]; [3]): 36.0%
% α (calmodulin [2]; [4]): 30%
% ω (calmodulin [2]; [5]): 33%
% J (calmodulin [2]; [6]): 38%

— patent US8652790B2, “Conformational entropy in molecular recognition” (The Trustees of the University of Pennsylvania, priority 2007, dated 2014)
